# Experimental data: article PMC3890319, “Role of Receptor Activity Modifying Protein 1 in Function of the Calcium Sensing Receptor in the Human TT Thyroid Carcinoma Cell Line” (PLoS ONE, 2014)
# T1: Calcium Sensing Receptor, C-terminal Citrine fusion (UniProt P41180 20-1078)
# T1 construct: Calcium Sensing Receptor (CaSR); cDNA cloned without its stop codon between HindIII and Not1 of pcDNA3.1-Citrine; Acceptor of the FRET pair; it says only that the cDNA was cloned excluding the stop codon; also called CaSR; CaSR-citrine; source: COS-7, transfected by electroporation (pcDNA3.1), in fixed cells; not shown: Citrine, C-terminal, kept
# T1 sequence (looked up): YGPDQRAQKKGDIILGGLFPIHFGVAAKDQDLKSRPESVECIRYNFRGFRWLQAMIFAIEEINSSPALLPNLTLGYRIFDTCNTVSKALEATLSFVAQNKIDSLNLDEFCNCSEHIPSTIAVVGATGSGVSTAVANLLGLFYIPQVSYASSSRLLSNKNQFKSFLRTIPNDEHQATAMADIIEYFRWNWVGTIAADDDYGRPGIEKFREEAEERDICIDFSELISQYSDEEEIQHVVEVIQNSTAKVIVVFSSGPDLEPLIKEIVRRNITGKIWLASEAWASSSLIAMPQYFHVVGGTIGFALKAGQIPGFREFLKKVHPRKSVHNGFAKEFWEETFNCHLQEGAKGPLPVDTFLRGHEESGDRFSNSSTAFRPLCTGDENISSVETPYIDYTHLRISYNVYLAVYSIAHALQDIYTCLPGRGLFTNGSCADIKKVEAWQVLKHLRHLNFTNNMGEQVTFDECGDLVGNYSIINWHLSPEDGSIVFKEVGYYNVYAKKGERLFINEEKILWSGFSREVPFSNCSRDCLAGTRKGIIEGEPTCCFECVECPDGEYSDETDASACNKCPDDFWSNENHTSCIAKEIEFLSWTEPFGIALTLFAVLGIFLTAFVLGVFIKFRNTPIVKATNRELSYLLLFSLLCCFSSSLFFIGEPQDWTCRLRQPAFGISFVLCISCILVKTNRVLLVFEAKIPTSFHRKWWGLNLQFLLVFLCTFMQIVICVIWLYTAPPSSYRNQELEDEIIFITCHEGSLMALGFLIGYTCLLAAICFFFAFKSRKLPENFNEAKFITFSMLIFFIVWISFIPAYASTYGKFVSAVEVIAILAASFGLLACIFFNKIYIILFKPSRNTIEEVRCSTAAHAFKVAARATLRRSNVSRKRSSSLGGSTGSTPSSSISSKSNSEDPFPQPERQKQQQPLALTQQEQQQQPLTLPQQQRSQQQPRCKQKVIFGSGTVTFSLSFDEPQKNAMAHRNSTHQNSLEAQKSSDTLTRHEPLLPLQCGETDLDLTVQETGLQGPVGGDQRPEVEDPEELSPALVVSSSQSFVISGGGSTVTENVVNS
# B1: Receptor Activity Modifying Protein 1, C-terminal Cerulean fusion (natural protein, UniProt O60894 27-148, looked up)
# chain: CQEANYGALLRELCLTQFQVDMEAVGETLWCDWGRTIRSYRELADCTWHMAEKLGCFWPNAEVDRFFLAVHGRYFRSCPISGRAVRDPPGSILYPFIVVPITVTLLVTALVVWQSKRTEGIV
# notes: Receptor Activity Modifying Protein 1 (RAMP1); cDNA cloned without its stop codon between Kpn1 and Not1 of pcDNA3.1-Cerulean; Donor of the FRET pair; also called RAMP1; RAMP1-Cer; source: COS-7, transfected by electroporation (pcDNA3.1), in fixed cells; not shown: Cerulean, C-terminal, kept
# B2: Receptor Activity Modifying Protein 3, C-terminal Cerulean fusion (natural protein, UniProt O60896 24-148, looked up)
# chain: RAGGCNETGMLERLPLCGKAFADMMGKVDVWKWCNLSEFIVYYESFTNCTEMEANVVGCYWPNPLAQGFITGIHRQFFSNCTVDRVHLEDPPDEVLIPLIVIPVVLTVAMAGLVVWRSKRTDTLL
# notes: Receptor Activity Modifying Protein 3 (RAMP3); cDNA cloned without its stop codon between Kpn1 and Not1 of pcDNA3.1-Cerulean; Donor of the FRET pair; also called RAMP3; RAMP3-Cer; source: COS-7, transfected by electroporation (pcDNA3.1), in fixed cells; not shown: Cerulean, C-terminal, kept
# Molecular target: T1, Calcium Sensing Receptor, C-terminal …
# Assay: FRET or BRET; sensitized-emission FRET (NFRET, PixFRET) and FRET-based stoichiometry in cell-surface regions of interest (50-pixel dots) of fixed COS-7 cells co-transfected with CaSR-Citrine (acceptor) and RAMP-Cerulean (donor); confocal microscopy at room temperature; NFRET as percent of a Cerulean-linker-Citrine positive control; negative control Citrine alone + RAMP-Cerulean
# Details: partners not purified
row,Binder,stoichiometry N
1,B1,2.19 CaSR:RAMP
2,B2,1.5 CaSR:RAMP
